Results as given in article PMC5752445, “Secretory leukocyte protease inhibitor (SLPI) as a potential target for inhibiting metastasis of triple-negative breast cancers” (Oncotarget, 2017).

Target: T1, GAL4-Rb fusion protein (pBIND-Rb) (UniProt P06400 1-928)
T1 construct: source: HEK293T, transiently transfected, mammalian two-hybrid fusion
T1 sequence (looked up): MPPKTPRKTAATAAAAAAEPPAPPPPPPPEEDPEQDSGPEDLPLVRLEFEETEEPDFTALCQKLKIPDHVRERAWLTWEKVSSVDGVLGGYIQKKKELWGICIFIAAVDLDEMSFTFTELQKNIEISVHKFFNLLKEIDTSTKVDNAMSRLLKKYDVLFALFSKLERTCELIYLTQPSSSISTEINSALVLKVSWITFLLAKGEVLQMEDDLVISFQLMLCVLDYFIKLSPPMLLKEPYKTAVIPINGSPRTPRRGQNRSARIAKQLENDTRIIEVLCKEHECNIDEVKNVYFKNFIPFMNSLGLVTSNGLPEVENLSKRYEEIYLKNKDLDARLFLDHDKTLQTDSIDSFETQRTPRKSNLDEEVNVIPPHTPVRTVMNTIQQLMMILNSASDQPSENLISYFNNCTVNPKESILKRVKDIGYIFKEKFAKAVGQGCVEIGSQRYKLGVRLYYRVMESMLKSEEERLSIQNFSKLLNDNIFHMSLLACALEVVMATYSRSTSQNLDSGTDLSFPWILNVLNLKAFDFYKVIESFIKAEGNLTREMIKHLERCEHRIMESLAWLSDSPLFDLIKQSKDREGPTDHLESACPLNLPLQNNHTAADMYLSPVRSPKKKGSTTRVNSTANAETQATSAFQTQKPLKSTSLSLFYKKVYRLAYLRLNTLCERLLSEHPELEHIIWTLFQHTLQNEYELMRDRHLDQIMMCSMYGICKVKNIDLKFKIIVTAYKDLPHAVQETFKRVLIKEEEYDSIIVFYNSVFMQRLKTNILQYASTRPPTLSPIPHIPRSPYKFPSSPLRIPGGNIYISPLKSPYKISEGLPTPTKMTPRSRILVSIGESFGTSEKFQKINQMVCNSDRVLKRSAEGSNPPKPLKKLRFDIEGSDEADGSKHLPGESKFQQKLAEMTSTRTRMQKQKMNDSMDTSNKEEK
Test: two-hybrid; mammalian two-hybrid in HEK293T: pBIND (GAL4 DNA-binding domain) and pACT (VP16 activation domain) fusions with pG5luc reporter; luciferase read 48 h after transfection; negative controls pBIND and pACT vectors
Settings: partners not purified

B1: VP16-SLPI fusion protein (pACT-SLPI) (natural protein, UniProt P03973 1-132, looked up)
chain: MKSSGLFPFLVLLALGTLAPWAVEGSGKSFKAGVCPPKKSAQCLRYKKPECQSDWQCPGKKRCCPDTCGIKCLDPVDTPNPTRRKPGKCPVTYGQCLMLNPPNFCEMDGQCKRDLKCCMGMCGKSCVSPVKA
notes: the legend names only pACT constructs of both; source: HEK293T, transiently transfected, mammalian two-hybrid fusion
- fold activation of the reporter over the negative controls: ~7 times
